Series [1] has as its system NC(=O)C1=CN([C@@H]2O[C@H](COP(=O)(O)OP(=O)(O)OC[C@H]3O[C@@H](n4cnc5c(N)ncnc54)[C@H](O)[C@@H]3O)[C@@H](O)[C@H]2O)C=CC1. Briefly: purified protein. Particulars: free NADH, 630 μM pyruvate, 50 mM Tris/HCl pH 7.4, 25 °C. The format is biochemical, Sus scrofa.
Series [2] has the same test system. In words: purified protein. Particulars: free NADH, 630 μM pyruvate, 50 mM Tris/HCl pH 7.4, 25 °C.

Sequence of phLDH (porcine heart LDH) (Sus scrofa) (chain, as listed by the source): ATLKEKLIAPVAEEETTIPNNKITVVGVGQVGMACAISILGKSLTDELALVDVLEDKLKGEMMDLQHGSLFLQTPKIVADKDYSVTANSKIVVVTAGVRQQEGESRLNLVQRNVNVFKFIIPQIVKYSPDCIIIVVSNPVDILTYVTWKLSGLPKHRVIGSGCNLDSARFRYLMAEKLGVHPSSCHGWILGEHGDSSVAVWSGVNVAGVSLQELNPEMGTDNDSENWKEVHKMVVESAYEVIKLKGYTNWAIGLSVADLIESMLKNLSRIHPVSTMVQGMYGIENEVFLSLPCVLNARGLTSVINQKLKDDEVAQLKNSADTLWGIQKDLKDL

Regarding phLDH (porcine heart LDH) (Sus scrofa), in series [1], the Km amounted to 7.8 ± 0.9 µM.
For “rmLDH (rabbit muscle LDH) (Oryctolagus cuniculus)”, the Km in series [2] stood at 4.4 ± 0.4 µM.

The record behind these values is paper PMC7320145, “Substrate Channeling via a Transient Protein-Protein Complex: The case of D-Glyceraldehyde-3-Phosphate Dehydrogenase and L-Lactate Dehydrogenase” (Scientific Reports, 2020).
